US20220002669A1 (JUNO THERAPEUTICS, published 2022)

Key:
[1] = target: T1, CD4 on the surface of T cells from a human donor apheresis sample (human, UniProt P01730 26-458); experiment: column affinity selection of T cells from a human apheresis sample
T1 construct: whole, on cells; also called selection marker
Experimental: The column was equilibrated with PBS (phosphate buffered saline) containing 0.5% bovine serum albumin (PBSA buffer) to give a bed volume of 1 mL.
As a control, an apheresis sample was loaded onto the anti-CD3 affinity column but without incubation in the presence of the anti-CD3/anti-CD28 oligomeric stimulatory reagent.

[2] = target: T2, STREP-TACTIN M2 covalently coupled to Sephadex G50 stationary phase (Streptomyces avidinii, UniProt P22629 38-163, covalently coupled to cyanogen bromide (CNBr) activated Sephadex G50 resin); experiment: loading of tagged Fab onto Strep-Tactin Sephadex G50 resin
T2 construct: Here it is immobilised on the chromatography matrix; also called immobilized Strep-Tactin reagent; selection reagent
Experimental: A 50% suspension of Sephadex G50 contained approximately 70 μg of covalently coupled 7 Strep-Tactin®/mL of the bead suspension. […] The suspension was then filled in a plastic minicolumn with a 90 micrometer frit at the bottom. The column was equilibrated with PBS (phosphate buffered saline) containing 0.5% bovine serum albumin (PBSA buffer) to give a bed volume of 1 mL.

B1: anti-CD4 binding Fab fragment obtained from m13B8.2, heavy chain carboxy-terminally fused with a Twin Strep-Tag (Fab, V domains shown)
VH: QVQLKQSGPGLVQPSQSLSITCTVSGFSLTTFGVHWVRQSPGKGLEWLGVIWASGITDYNVPFMSRLSITKDNSKSQVFFKLNSLQPDDTAIYYCAKNDPGTGFAYWGQGTLVTVSA
VL: DIQMTQSPASLSASVGETVTFTCRASEMIYSYLAWYQQKQGKSPQLLVHDAKTLAEGVPSRFSGGGSGTQFSLKINTLQPEDFGTYYCQAHYGNPPTFGGGTKLEIKR
notes: also called anti-CD4 Fab
[1]
  binding result: binds
[2]
  binding result: binds
